{"source": "paper PMC3213119", "about": "“Towards a Structural Comprehension of Bacterial Type VI Secretion Systems: Characterization of the TssJ-TssM Complex of an Escherichia coli Pathovar” (PLoS Pathogens, 2011)", "binders": {"B1": {"name": "TssM-ekto N-terminal thioredoxine fusion (domain or fragment)", "chain": "DYGSLTAAGLGQEWYGFGQTVFVRPMEQAWQQVLTPAAESLNARWRTAVVDGWNNAFSGRYPFKNVSSDASLPLLAKYLNTDTGRIARFLQNNLSGVLHREGSRWVPDTINTRGLTFNPAFLKAINTLSEIADVAFTTGNAGLHFELRPGTAAGVMQTTLITDNQKLIYVNQMPVWKRFTWPADTEAPGASLSWVSTQAGTRQYADLPGSWGLIRLLEMARRKAAPGVASGWSLSWQAQDGRMLNYTLRTEAGEGPLVLLKLRNFVLPETVFELSGTSAFTGNDEDAGDTVEETD"}}, "key": {"[1]": {"target": "T1, TssJ (enteroaggregative E. coli Sci1 T6SS), residues 2-155 of the processed lipoprotein, fusion and tag … (enteroaggregative Escherichia coli …)", "T1 construct": "TssJ outer membrane lipoprotein of the sci1 cluster, enteroaggregative Escherichia coli strain 17-2; residues 2-155 of the processed lipoprotein = residues 25-178 of the full-length protein; a Gly left at position 1 may stem from the TEV site (surmised); also called native TssJ; SciN; not shown: thioredoxin, N-terminal, cleaved; His6, N-terminal, cleaved", "experiment": "SPR; Biacore X100; Trx-TssM-ekto covalently coupled to a CM5 chip (3000 RU), TssJ injected (40-0.312 µM); 10 mM Tris pH 8, 150 mM NaCl, 0.005% Tween; Kd from equilibrium levels, 1:1 model", "conditions": "both partners purified"}, "[2]": {"target": "T2, TssJ N-terminal thioredoxine fusion (enteroaggregative Escherichia coli …)", "T2 construct": "TssJ of enteroaggregative Escherichia coli strain 17-2; residues 2-155 of the processed lipoprotein = residues 25-178 of the full-length protein; pETG-20A construct: hexahistidine tagged thioredoxin, TEV site, TssJ; used uncleaved on the CM5 chip; also called Trx-TssJ; source: E. coli T7 Iq pLysS, purified; not shown: thioredoxin, N-terminal, kept; His6, N-terminal, kept", "experiment": "SPR; Biacore X100; Trx-TssJ covalently coupled to a CM5 chip (600 RU), TssM construct injected (Trx-TssM-ekto at 10-0.312 µM); 10 mM Tris pH 8, 150 mM NaCl, 0.005% Tween; Kd from equilibrium levels, 1:1 model", "conditions": "both partners purified"}}}
{"binder": "B1", "values": [{"measurement": "Kd", "setting": "[1]", "value": "4 ± 0.5", "unit": "µM"}, {"measurement": "Kd", "setting": "[2]", "value": 2.1, "unit": "µM"}]}
